Here are results for three substances from patent US20160264649A1.

Among the targets are HIV-1 DU156 Env (HIV-1); HIV-1 Du172 Env (HIV-1); HIV-1 AC10 Env (HIV-1); HIV-1 ZM249 Env (HIV-1); HIV-1 CAAN Env (HIV-1); HIV-1 DU422 Env (HIV-1); HIV-1 CAP45 Env (HIV-1); HIV-1 ZM233 Env (HIV-1); HIV-1 ZM214 Env (HIV-1); HIV-1 PVO.4 Env (HIV-1); HIV-1 TR0.11 Env (HIV-1).
Test in all cases: cell-based or functional assay
Assay [1] has as its target HIV-1 Env of pseudovirus isolate MGRM-G-025 (subtype G) (HIV-1).
Assay [2] has as its target HIV-1 Env of isolate MGRM-F1-021 (subtype F) (HIV-1).
Assay [3] has as its target HIV-1 Env of isolate 93UG077 (subtype A) (HIV-1).
For assay [4], the target named is HIV-1 Env of isolate MGRM-F1-017 (subtype F) (HIV-1).
For assay [5], the target named is HIV-1 Env of isolate MGRM-Chronic-B-020 (subtype B) (HIV-1).
Assay [6] deals with HIV-1 Env of isolate JRFL (subtype B) (HIV-1).
The target of assay [7] is HIV-1 REJ04541 Env (HIV-1).
Assay [8] addresses HIV-1 THRO.18 Env (HIV-1).
The target in assay [9] is HIV-1 JR-FL Env E168K (HIV-1).
The target of assay [10] is MuLV envelope (control pseudovirus).

Where only a bound is given, the exact number is not on record here.

Chain of 1443_C16 (PG16) (TCN-116) (antibody) (VH): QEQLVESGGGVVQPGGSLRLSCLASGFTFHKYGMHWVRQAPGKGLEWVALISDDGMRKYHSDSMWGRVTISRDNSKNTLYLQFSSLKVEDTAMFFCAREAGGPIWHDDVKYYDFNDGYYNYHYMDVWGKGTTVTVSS
Chain of 1443_C16 (PG16) (TCN-116) (antibody) (VL): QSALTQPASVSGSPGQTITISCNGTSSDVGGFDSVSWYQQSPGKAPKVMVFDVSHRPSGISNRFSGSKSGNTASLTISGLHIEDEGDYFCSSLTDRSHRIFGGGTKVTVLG

For PGV04 (antibody), the results for the IC50 in assay [1], in assay [5] and in [6] were 1.61 µg/mL, 1.26 µg/mL and 0.032 µg/mL, respectively. Besides, the IC50 (pseudovirus neutralization) in [2] is 0.031 µg/mL; in [3] it was 0.083 µg/mL; in [4], 2.38 µg/mL.

Consider VRC01 (antibody), for which the IC50 in [1] amounted to 0.292 µg/mL; in assay [5], 0.424 µg/mL; in assay [6], 0.034 µg/mL. Also, the IC50 (pseudovirus neutralization) in [2] stood at 0.039 µg/mL; in assay [3] it was 0.097 µg/mL; in [4], 1.08 µg/mL.

As to 1443_C16 (PG16) (TCN-116) (antibody), the IC50, TZM-bl pseudovirus neutralization in assay [7] is less than 0.01 µg/mL; in the assay with HIV-1 DU156 Env (HIV-1), less than 0.01 µg/mL; with HIV-1 Du172 Env (HIV-1) it was less than 0.01 µg/mL; with HIV-1 AC10 Env (HIV-1), less than 0.01 µg/mL; with HIV-1 ZM249 Env (HIV-1) it was less than 0.01 µg/mL; with HIV-1 CAAN Env (HIV-1), 6.37 µg/mL. Moreover, the IC50, TZM-bl pseudovirus neutralization in assay [8] was 2.19 µg/mL; in assay [9], 0.006 µg/mL; with HIV-1 DU422 Env (HIV-1) it was 0.59 µg/mL; with HIV-1 CAP45 Env (HIV-1), less than 0.01 µg/mL; with HIV-1 ZM233 Env (HIV-1), less than 0.01 µg/mL; in the assay with HIV-1 ZM214 Env (HIV-1), more than 25 µg/mL. The IC50, TZM-bl pseudovirus neutralization with HIV-1 PVO.4 Env (HIV-1) is 12.3 µg/mL; with HIV-1 TR0.11 Env (HIV-1), 3.61 µg/mL; in [10] it was more than 25 µg/mL.

As usually defined, the IC50 is the concentration that gives 50% inhibition. A lower IC50 goes with higher potency.
